Measurements published in the RNAGym collection of RNA variant scans (doi:10.1073/pnas.2313332121).

B1: TPR t1 (parent)
chain: GACCAAUCUGCCCUCAGAGCUCGAGAACAUCUUCGGAUGCAGAGGAGGCAGGCUUCGGUGGCGCGAUAGCGCCAACGUCCUCAACCUCCAAUGCAUCCCACCACAUGAUGAUGCCUGAAGAGCCUUGGUUUUUUG

Variants of: B1
Test: polymerase ribozyme fitness, log enrichment relative to wild type (log ratio); higher = more active; in vitro selection for triplet polymerase activity
Summary of the method: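 Fitness is a logarithmic measure of how a genotype enriched relative to the wild type, with replicate averages weighted by inverse variance. The logarithm uses base 2, and enrichment came from Illumina sequencing of input and output libraries. Those libraries were PCR-built, transcribed mutants of each subunit of a heterodimeric triplet polymerase ribozyme, passed through one triplicate in vitro selection round that included frozen incubation at −7 °C, gel excision of extended constructs and streptavidin-bead capture. Genotypes were kept only if they had ≥10 input reads and ≥1 read per output.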

Variant	polymerase ribozyme fitness (log ratio)
GACCAAUCGGCCCUCAGAGCUCGAGAACAUCUUCGGUUACAGAGUUGGCAGGCUUCGGUGGCGCGAUAGCGCCAACGUCCUCAACCUCCAAUGGAUCCCACCACAUGAUGAUGCCUGAAGAGCCUUGGUUUUUUG [U9G A37U G39A G45U A46U C94G]	-5.9
GACCAAUCGGCCCUCAGAGCUCGAGAACAUCUUCGGAUGCAGAGGAGGCAGGCUUCGGUGGCGCGAUAGCGCCAACGUCCUCGACCUCCAAUACAUCCCACAACAUGAUGAUGCCUGAAGAGUCUUGGUUUUUUG [U9G A83G G93A C102A C123U]	-2.93
GACCAAUCCGCCCUCAGAGCUCGAGAACAUCUUCGGAUACUGAGGAGGCAGGCUUCGGUGGCGCGAUAGCGCGAACGUCCUCAACCUCCAAUGCAUCCCACCACAUGAUGAUGCCUGAAUAGCCUUGGUUUUUUG [U9C G39A A41U C73G G120U]	-0.71
GACCAAUCCGCCCUCAGAGCUCGAGAACAUCUUCGGAUACCGAGGAGGCAGGCUUCGGUGGCGCGAUAGCGGCAACGUCCUCACCAUCCAAUGCAUCCAACCACAUGAUGAUGCCUGAAGUGCCUUGGUUUUUUG [U9C G39A A41C C72G A84C C86A C99A A121U]	-6.53
GACCAAUCCGCCCUCAGAGCUCGAGAACAUCUUCGGAUGCAGAGGAGGCAGGCUUCGGUGGCGCGAUAGUGCCAACGUCCUCAACCUCCAAUGCAUCCCACCACAUGAUGAUGCCUGAAGAGCCUUGGUUUUUUG [U9C C70U]	-0.0921
GACCAAUCCGCCCUCAGAGCUCGAGAACAUCUUCGUAUGCAGAGGAGGCAGGCUUCGGUGGCGCGAUAGCGCCAACGUCCUCAACCUCCAAUGCAUCCCACCAAAUGAUGAUGCAUGAAGAGCCUUGGUUUUUUG [U9C G36U C104A C115A]	-1.3
GACCAAUCCGCCCUCAGAGCUCGAGAACAUCUUCGGAUGCAGAGGAGGCAGGCUUCGGUGGCGCGAUAGCGCCAACGUCCACAACCUCCAAUGCAUCCCACCACAUGAUGAUGCCAGAAGAUCUUUGGUUUUUUG [U9C U81A U116A G122U C124U]	-0.783
GACCAAUCCGCCCUCAGAGCUCGAGAACAUCUUCGGAUGGAGAGGAGGCAGGCUUCGGUGGCGCGAUAGCGCCAACGUCCUCAACCUCCAAUGCAUCCCAUCACAUGAUGAUGCCUGAAGAGCCUUGGUUUUUUG [U9C C40G C101U]	-0.436
GACCAAUCCGCCCUCAGAGCUCGAGAACAUCUUCGGAUGCAGAGGAGGCAGGCAUCGGUGGCGCGAUAGCGCCAACGUCCUCAACCUCCAAUGCAUCCCAUCACAUGAUGAUGCCUGAAGAGCCUUGGUUUUUUG [U9C U54A C101U]	0.158
GACCAAUCCGCCCUCAGAGCUCGAGAACAUCUUCGGAUGCAGAGGAGGCAGACUUCGGUGGCGCGAUAGCGCCAACGUCCUCAACCUCCAAUGCAUCCCACCAUAUGAUGAUGCCUGAAGUGCCUUGGUUUUUUG [U9C G52A C104U A121U]	2.1
GACCAAUCCGCCCUCAGACCUCGAGAACAUCUUCGGAUGCAGAGGAGGCAGGCUUCGGUGGCGCGAUAGUGCCAACGUCCUCAACCUCCAAUGCAUCCCACCACAUGAUGAUGCCUGAAGAGCCUUGGUUUUUUG [U9C G19C C70U]	-3.22
GACCAAUCCGCCCUCAGAGCUCGAGAACAUCUUCGGAUGCAGAGGAGGCAGGCUUCGGUGGCGCGAUAGCGCCAACGUCCUCAACCUCCAAUGCAUCCCACCACAUGAUGAUGCCUGAAGAGCCUUGGUUUUGUG [U9C U133G]	0.11
GACCAAUCCGCCCUCAUAGGUCGACAACAUCUUCGGAUGCAGAGGAGGCAGGCUUCGGUGGCGCGAUAGCGCCAACGUCCUCAACCUCCAAUGCAUCCCACCACAUGAUGAUGCUUGAAGAGCCUUGGUUUUUUG [U9C G17U C20G G25C C115U]	-6.98
GACCAAUCCGCCCACAGAGCCCGAGAACAUCUUCGGAUGCAGCGGAGGCAGGCUUCGGUGGCGCGAUAGCGCCAACGUCCUCAACCUCCAAUGCAUCCCACCACAUGAUGAUGCCUAAGGAGCCUUGGUUUUUUG [U9C U14A U21C A43C G117A A119G]	-1.44
GACCAAUCGGCCCUCAGAGCUCGAGAACAUCUUCGGAUGCUGAGGAGGCAGGCUUCGGUGGCGCGAUAGCGCCAACGUCCCCAACCUCCAAUGCAACCCACCACAUGAUGAUGCCUGAAGAGCCUUGGUUUUUUG [U9G A41U U81C U96A]	-2.65
GACCAAUCGGCCCUCAGAGCUCGAGAACAUCUUCGGAUGCAGAGGAGGCAGGCUUCGGUGGCGCGAUAGCGCCAACGUCCUCAACCUCCAAUGCAUCCCACCUCAUGAUGAUGCCUGAAGAGCCUACGUUUUUUG [U9G A103U U126A G127C]	-5.16
GACCAAUCGGCCCUCGGAGCUCGAGAACAUCUUCGGAUGCAGAGGAGGCAGGCUUCGGUGGCGCGAUAGCGCGAACGUCCUCAACCUCCAAUGCAUCCCACCACAUGAUAAUGCCUGAAGAGCCUUGGUUUAUUG [U9G A16G C73G G110A U132A]	-2.97
GACCAAUCCGCCCUCAGAGCUCGAGAACAUCUUCGGAUGCAGAGGAGUCAGCCUUCGGUGGCGCGAUAGCGCCAACGUCCUCAACCUCCAAUGCAUCCCACCACAUGAUGAUGCCUUAAGAGCCUUGGUUUUUUG [U9C G48U G52C G117U]	-2.68
GACCAAUCCGCCCUCAGAGCUCGAGAACAUCUUCGGAUGUAGAGGAGGCAGGCUUCGGUGGCGCGAUAGCGCCAACGUCCUCAACCUCCAAUGCAUCCCACCACAUGAUGAGGCCUGAAGAGCCUUGGUUUUUUG [U9C C40U U112G]	0.239
GACCAAUCCGCCCUCAGAGCACGAGAACAUCUUCGGAUGCAGAGGAGGGAGGCUUCGGUGGCGCGAUAGCGCCAACGUCCUCAACCUCCAAUGCAUCCCAACACAUGAUGAUGCCUGAAGAGCCUUGGUUUUUUG [U9C U21A C49G C101A]	-1.26
GACCAAUCCGCCCUCAGAGCUCGAGAACAUCUUCGGAUGCAGAGGAGGCAGGCUUCGGUGGCGCGAUAGCGCCAACGUCCUCAACCUCCAAUGCAUCCCACCACAUGAUGAUGCCUGAAGAGCCAUGGUUUUUUG [U9C U125A]	0.386

Variant	polymerase ribozyme fitness (log ratio)
GACCAAUCCGCCCUCAGAGCUCGAGAACAUCCUCGGAUGCAGAGGAGGCAGGCUUCGGUGGCGCGAUAGCGCCAACGUCCUCAACCUCCAAUGCAUCCCACCACAUGAGGAUGCCUGAAGAGCCUUGGUUUUUUG [U9C U32C U109G]	-6.53
GACCAAUCGGCCCUCAGAGCUCGAGAACAUCUUCGGAUGCAGAGGUGUCAGGCUUCGGUGGCGCGAUAGCGCCAAUGUCCUCAACCUCCAAUGCAUCCCACCACAUGAUGAUGCCUGAAGAGCUUUGGUUUUUUG [U9G A46U G48U C76U C124U]	-1.24
GACCAAUCGGCCCUCAGAGCUCGAGACCAUCUUCGGAUGCAGAGGAGGCAGGCUUCGGUGGCGCGAUAGCGCCAACGUCCUCAACCUCCAAUGCAUCUCACCACAUGAUGAUGCCUGAAGAGCCUUGGUUUUUUG [U9G A27C C98U]	-4.04
GACCAAUCGGCCCUCAGAGCUCGAGCACAUCUUCGGAUGCAGAGGAGGCAGGCAACGGUGGCGCGAUAGCGCCAACGUCCUCAACCUUCAAUACAUCCCACCACAUGAUGAUGCCUGAAGAGCCUUGGUUUUUUG [U9G A26C U54A U55A C88U G93A]	-6.29
GACCAAUCCGCCCUCAGAGCUCGAGAACAUCUUCGGAUGCAGAGGAUGCAGGCUUCGGUGGCUCGAUAGCGCCAACGUCCUCAACCUCCAAUGCAUCCCACCACAUGAUGAUGCCUGAAGAGCCUUGGUUUUUUG [U9C G47U G63U]	-1.41
GACCAAUCGGCCCUCAGAGCUCGAGAACAUCUUCGGAUGCAGAGGAGGCAGGCUUCGGUGGCGCGAUAGCGCCAACGUCCUCAACCUCCAAUGCCUCCCACCACAUGAUGAUGCCUGAAGAGCCUUGGUAUUUUG [U9G A95C U130A]	-0.961
GACCAAUCCGCCCUCAGAGCUCGAGAACAUCUUCGGAUGCAGAGGAGGCAGGCUUCGGUGGUGCGAUAGCGCCAACGUCCUCAACCUCCAAUGCAUCCCACUACAUGAUGAUGCCUGAAGAGCCUUGGUUUUUUG [U9C C62U C102U]	-1.87
GACCAAUCCGCCCUCAGAGCUCGAGAACAUCUUCGGAUGCAGAGAAGGCAGGCUUCGGUGGCGCGAUAGCGCCAACGUCCUCAACCUCCAAUGCAUCCCACCACAUGAUGAUGCCUGAAGAGCUUAGGUUUUAUG [U9C G45A C124U U126A U133A]	-0.505
GACCAAUCCGCCCUCAGAGCUCGAGAACAUCUUCGGAUGCAGAGGAGGCAGGCUUCGGUGGCGAGAUAGCGCCUACGUCCUCAACCUCCAAUGCAUCCCACCACAUGAUGAGGCCUGAAGAGCCUUGGUUUUUUG [U9C C64A A74U U112G]	-6.76
GACCAAUCGGCCCUCAGCGCUCGAGAACAUCUUCGGAUGCAGAGGAGGCAGGCUUCGGUGGCGCGAUAGCGCCAACGUCCUCAACCUCCAAUGCAUCCCACCACAUGAUGAUGCCUAAAGAGCCUUGGUUUUUUG [U9G A18C G117A]	0.733
GACCAAUCCGCCCUCAGAGCUCGAGAACAUCUUCGGAUGCAGAGGAGGCAGGCUUCGGUGGCGCGAUAGCGCCAACGUCCUAAACCUCCAAUGCAUCCCACCACAUGAGGAUGCCUGAAGAGCUUUGGUUCUUUG [U9C C82A U109G C124U U131C]	-3.57
GACCAAUCCGCCCUCAGAGCUCGAGAACAUCUUCGGAUGCAGAGGAGGCAGACUUCGGUGGCGCGAUAGCGCCAACGUCCUCAACCUCAAAUGCAUCCCACCACAUGAUGAUGCCUAAAGAGCCUUGGUUUUUUG [U9C G52A C89A G117A]	-1.63
GACCAAUCCGCCCUCAGAACUCGAGAACAUCUUCGGAUGCAGAGGAGGCAGGCUUCGGUGGCGCGAUAGCGCCAACGUCCUCAACCUCCAAUGCAACCCACCACAUGAUGAUGCCUGAAGGGCCUUGGUUUAUUG [U9C G19A U96A A121G U132A]	-1.11
GACCAAUCCGCCCUCAGAGCUCGAGAACAUCUUCGGAUGCAGAGGAUGUAGGCUUCGGUGGCGCGAUAGCGCCAACGUCCUCAACCUCCAAUGCAUCCCACCACAUGAUGAUGCCUGAAGAGCCUUGGAUUUUUG [U9C G47U C49U U129A]	-3.07
GACCAAUCGGCCCUCAGUGCUCGAGAACAUCUUCGGAUGCAGAGGAGGAAGGCUUCGGUGGCGCGAUAGCGCCAACGUCCUCAACCUCCAAUACAUCCCACCACAUGAUCAUGCCUGAAGAGCCUUGGUUUUUUG [U9G A18U C49A G93A G110C]	-5.65
GACCAAUCCGCCCUCAGAGCUCGAGAACAUCUUCGGAUGCAGAGGAGGCAGGCUUCGGUGGCGCGAUAGCGCCAACGUCCUCAAGCUCCAAUGCAUCCCACCACAUGAUGAUGCCUGAAGAGCCUUGGUUUUUUG [U9C C85G]	-1.02
GACCAAUCCGCCCUCAAAGCUCGAGAACAUCUUCGGAUGCAGUGGAGGCUGGCUUCGGUGGCGCGAUAGCGCCCACGUCCUCAACCUCCAAUGCAUCCCACCACAUGAUGAUGCCUGAAUAGCCUUGGUUUUUUG [U9C G17A A43U A50U A74C G120U]	-4.05
GACCAAUCCGCCCUCAGAUCUCGAGAACAUCUUCGGAUGCAGAGGAGGCAGGCUUCGGUGGCGCGAUAGUGCCAACGUCCUCAACCUCCAAUGCAUCCCACCACAUGAUGAUGCCUGAAGAGCCUUGGUUUUUUG [U9C G19U C70U]	-3.94
GACCAAUCCGCCCUCAGAGCUCGAGAACAUCUUCGGAUGCACAGGAGGCAGGAUCCGGUGGCGCGAUAGCGCCAACGUCCUCAACCUCCAAUGCAUCCCACCACAUGAUGAUGCCUGAAGAGCCUUGGUGUUUUG [U9C G42C C53A U55C U130G]	-1.45
GACCAAUCCGCCCUCAGAGCUCGAGAACAUCUUCGGAUGCAGAGGAGGCAGGUUUCGGUGGCGCGAUACCGCCAACGUCCUCAACCUCCAAUGCAUCCCACCACAUGAUGAUGCCUGAAGAGCCUUGGUUUUUUG [U9C C53U G69C]	-0.176
GACCAAUCCGCCCUCAGAGCUCGAGAACAUCUUCGGAUGCAGAGGAGGAAGGCUUCGGUGGCGCGAUAGCGCCAACGUCCUCAACCUCCAAUGCAUCCCACCACAUGAUGAUGCCUGAAGAGUCUUGGUUUUUUG [U9C C49A C123U]	1.45
